Assay results as given in patent US20090312403A1.

Each binder was assayed against mouse B6 class I antigens (H-2^b: D^b or K^b) on RMA-S cells (mouse) (assay: binding of 9mer peptide to mouse B6 (H-2^b) class I antigens, RMA-S cell assay).

Row | Binding Affinity to Mouse MHC Class I [%] | Binder
1 | 79 | NAPYLPSCL [WT1 peptide P130-138 (…)]
2 | 2 | PSQASSGQA [WT1 peptide P117-125 (…)]
3 | 1 | ASSGQARMF [WT1 peptide P120-128 (…)]
4 | 1 | SSGQARMFP [WT1 peptide P121-129 (…)]
5 | 2 | QASSGQARM [WT1 peptide P119-127 (…)]
6 | 1 | QARMFPNAP [WT1 peptide P124-132 (…)]
7 | 2 | MFPNAPYLP [WT1 peptide P127-135 (…)]
8 | 1 | PNAPYLPSC [WT1 peptide P129-137 (…)]
9 | 2 | SQASSGQAR [WT1 peptide P118-126 (…)]
10 | 1 | ARMFPNAPY [WT1 peptide P125-133 (…)]
11 | 1 | APYLPSCLE [WT1 peptide P131-139 (…)]
12 | 1 | FPNAPYLPS [WT1 peptide P128-136 (…)]

The binders below were run against mouse B6 class I antigens (H-2^b: D^b or K^b) on RMA-S cells (mouse) (assay: RMA-S cells incubated with peptide (25 ug/ml), flow cytometry with FITC anti-D^b or anti-K^b).

Row | Binding Affinity to Mouse MHC Class I (% increase of D^b or K^b on RMA-S cells) [%] | Binder
13 | 1.2 | GCNKRYFKL [WT1 peptide p329-337 (…)]
14 | 0.8 | YSSDNLYQM [WT1 peptide p221-229 (…)]
15 | 52 | SCLESQPAI [WT1 peptide human p136-144 (…)]
16 | 5.8 | NLYQMTSQL [WT1 peptide p225-233 (…)]
17 | 1.2 | QMTSQLECM [WT1 peptide p228-236 (…)]
18 | 33.6 | CMTWNQMNL [WT1 peptide p235-243 (…)]
19 | 2.2 | ALLPAVPSL [WT1 peptide human p10-18 (…)]
20 | 1 | NQMNLGATL [WT1 peptide p239-247 (…)]
